According to US9360484B2, “Anti-FcRH5 antibodies and immunoconjugates and methods of use” (Genentech, Inc., priority 2009, dated 2016):

Legend:
human FcRH1-6 = assay: FACS cross-reactivity analysis on SVT2 cells stably expressing gD tagged huFcRH1-6; assay type: binding; details: 1.0 ug Ab (or 100 μl hybridoma supernatant) per 10^6 SVT2 cells expressing gD tagged huFcRH1-6
Method: To determine the cross-reactivity of FcRH5 antibodies, binding of IgG variants to SVT2 cells, expressing human FcRH1-6 were analyzed using FACS analysis.
Briefly, approximately 10^6 cells of SVT2 cells stably expressing gD tagged huFcRH1-6 in 100 μl were incubated with 1.0 ug of murine or chimeric Ab [Mu anti-gD (positive control), Mu anti-FcRH5 (1H4) (“mu1H4”), Mu anti-FcRH5 (4D10) (“mu4D10”), Mu anti-FcRH5 (6H1) (“mu6H1”), Mu anti-FcRH5 (7D11) (“mu7D11”), Ch anti-FcRH5 (7D11) (“ch7D11”), Mu anti-FcRH5 (8116) (“mu8H6”), Mu anti-FcRH5 (9E2) (“mu9E2”), or Mu anti-FcRH5 (13G9) (“mu13G9”)]. Incubation of SVT2 cells stably expressing the empty vector was incubated with the same antibodies and used as a negative control. PE conjugated Rat anti-MuIgG1, Rat anti-MuIgG2a+b, or Mu anti-HuIgG was used as the secondary detection antibody.
To further determine the cross-reactivity of FcRH5 antibodies, binding of IgG variant supernatants to SVT2 cells, expressing human FcRH1-6 were analyzed using FACS analysis.
Briefly, approximately 10^6 cells of SVT2 cells stably expressing gD tagged huFcRH1-6 were incubated with 1.0 μg purified Ms anti-gD antibody or 100 μl (concentration unknown) of murine Ab hybridoma supernatant (Mu anti-FcRH5 (10A8) (“mu10A8”), Mu anti-FcRH5 (10F5) (“mu10F5”)). […]

cynomolgus FcRH5 = assay: Cyno cross-reactivity by FACS on stably transfected cells (SVT2 cells expressing cynoFcRH5); assay type: binding, cynomolgus monkey; details: 1.0, 0.1 or 0.01 μg antibody per million SVT2 cells stably expressing cynoFcRH5
Method: For additional FACS analysis of FcRH5 antibodies, 1.0 μg, 0.1 μg or 0.01 μg of antibody was titrated per million cells of BJAB cells stably expressing huFcRH5 and SVT2 cells stably expressing cynoFcRH5. Briefly, approximately 10^6 cells in 100 μl were incubated with varying amounts (1.0 ug, 01. ug or 0.01 ug) of murine Ab mu1H4, mu6H1, mu7D11, mu9E2, mu10A8, mu10F5, or mu13G9 per million cells of BJAB cells stably expressing huFcRH5 and SVT2 cells stably expressing cynoFcRH5. Incubation with 1.0 ug/10^6 cells of the appropriate Mu IgG isotype control was used as a negative control. PE conjugated Rat anti-MuIgG1 or Rat anti-MuIgG2a+b was used as the secondary detection antibody.

[1] = test system: OPM2.CMV.PD.FcRH5.5P.2 cells; assay: In vitro cell proliferation assay (CellTiter-Glo Luminescent Cell Viability Assay); assay type: cell-based, human; details: OPM2.CMV.PS.FcRH5.5P.2 cells, 3 days incubation
Description: The homogeneous “add-mix-measure” format results in cell lysis and generation of a luminescent signal proportional to the amount of ATP present. The substrate, Beetle Luciferin, is oxidatively decarboxylated by recombinant firefly luciferase with concomitant conversion of ATP to AMP and generation of photons. Viable cells are reflected in relative luminescence units (RLU). Data can be recorded by luminometer or CCD camera imaging device. […] Alternatively, photons from luminescence can be counted in a scintillation counter in the presence of a scintillant.
3. The plates were equilibrated to room temperature for approximately 30 minutes.
5. The contents were mixed for 2 minutes on an orbital shaker to induce cell lysis.
6. The plate was incubated at room temperature for 10 minutes to stabilize the luminescence signal.

human FcRH5 [2] = target: T1, human FcRH5 (Homo sapiens, UniProt Q96RD9, G418D/L733P/S890P/V466I/Y267H); assay: Affinity determination (Scatchard analysis) on cells expressing human FcRH5; assay type: binding; details: by FACS and Scatchard analysis
T1 construct: expressed in transfected cells; host or cells: OPM2 multiple myeloma cells
T1 sequence (Q96RD9 16-977 Y267H/G418D/V466I/L733P/S890P): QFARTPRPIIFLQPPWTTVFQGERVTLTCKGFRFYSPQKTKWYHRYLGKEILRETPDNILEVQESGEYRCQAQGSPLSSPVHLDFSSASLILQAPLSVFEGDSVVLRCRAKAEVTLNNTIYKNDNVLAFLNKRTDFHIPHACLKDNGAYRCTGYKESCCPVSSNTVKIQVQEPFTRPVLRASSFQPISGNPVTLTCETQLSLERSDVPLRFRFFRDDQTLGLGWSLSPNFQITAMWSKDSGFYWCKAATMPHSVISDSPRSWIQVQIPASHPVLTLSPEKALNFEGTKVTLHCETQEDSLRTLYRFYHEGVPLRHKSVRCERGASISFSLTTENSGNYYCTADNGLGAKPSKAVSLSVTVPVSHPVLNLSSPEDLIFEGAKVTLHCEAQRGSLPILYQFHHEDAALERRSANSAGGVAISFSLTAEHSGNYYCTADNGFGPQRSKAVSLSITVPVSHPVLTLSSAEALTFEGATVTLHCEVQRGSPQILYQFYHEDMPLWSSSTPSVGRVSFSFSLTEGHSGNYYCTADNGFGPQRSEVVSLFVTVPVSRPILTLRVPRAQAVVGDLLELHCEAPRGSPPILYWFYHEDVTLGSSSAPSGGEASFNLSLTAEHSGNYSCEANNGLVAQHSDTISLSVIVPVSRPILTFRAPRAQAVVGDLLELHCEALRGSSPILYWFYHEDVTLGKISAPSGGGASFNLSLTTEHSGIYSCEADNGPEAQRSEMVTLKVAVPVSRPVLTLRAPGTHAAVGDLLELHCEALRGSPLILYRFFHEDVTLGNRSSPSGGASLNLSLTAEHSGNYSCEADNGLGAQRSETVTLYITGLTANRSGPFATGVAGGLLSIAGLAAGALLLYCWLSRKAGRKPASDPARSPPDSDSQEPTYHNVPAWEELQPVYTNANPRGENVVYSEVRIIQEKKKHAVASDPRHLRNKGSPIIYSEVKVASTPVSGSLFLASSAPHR
Method: To further determine binding of the FcRH5 murine antibodies and IgG clones, binding of iodinated IgG variants to OPM2 cells expressing human FcRH5 and SVT2 cells expressing cynomologous FcRH5, Scatchard analysis was performed.
After a four hour incubation at 4° C., cells were washed and cell pellet counts were read by a gamma counter (1470 WIZARD Automatic Gamma Counter; Perkin Elmer, Walthem, Mass.). All points were done in triplicate and counted for 10 minutes. The average CPM was used for Kd calculation using the New Ligand (Genentech, South San Francisco, Calif.) program.

human FcRH5 [3] = target: T2, human FcRH5 (Homo sapiens, UniProt Q96RD9); assay: Affinity determination (Biacore analysis) of murine anti-FcRH5 IgGs; details: murine IgG captured on chip, 25° C., 1:1 Langmuir binding model; read-out: Affinity (Biacore) to Hu antigen
T2 construct: vectors that expresses the His-tagged extra-cellular domain (ECDs) of the FcRH5/IRTA2 into CHO cells; His tag (HIS6); made in house; host or cells: CHO cells (transient transfection)
T2 sequence (Q96RD9 16-851 limits assumed): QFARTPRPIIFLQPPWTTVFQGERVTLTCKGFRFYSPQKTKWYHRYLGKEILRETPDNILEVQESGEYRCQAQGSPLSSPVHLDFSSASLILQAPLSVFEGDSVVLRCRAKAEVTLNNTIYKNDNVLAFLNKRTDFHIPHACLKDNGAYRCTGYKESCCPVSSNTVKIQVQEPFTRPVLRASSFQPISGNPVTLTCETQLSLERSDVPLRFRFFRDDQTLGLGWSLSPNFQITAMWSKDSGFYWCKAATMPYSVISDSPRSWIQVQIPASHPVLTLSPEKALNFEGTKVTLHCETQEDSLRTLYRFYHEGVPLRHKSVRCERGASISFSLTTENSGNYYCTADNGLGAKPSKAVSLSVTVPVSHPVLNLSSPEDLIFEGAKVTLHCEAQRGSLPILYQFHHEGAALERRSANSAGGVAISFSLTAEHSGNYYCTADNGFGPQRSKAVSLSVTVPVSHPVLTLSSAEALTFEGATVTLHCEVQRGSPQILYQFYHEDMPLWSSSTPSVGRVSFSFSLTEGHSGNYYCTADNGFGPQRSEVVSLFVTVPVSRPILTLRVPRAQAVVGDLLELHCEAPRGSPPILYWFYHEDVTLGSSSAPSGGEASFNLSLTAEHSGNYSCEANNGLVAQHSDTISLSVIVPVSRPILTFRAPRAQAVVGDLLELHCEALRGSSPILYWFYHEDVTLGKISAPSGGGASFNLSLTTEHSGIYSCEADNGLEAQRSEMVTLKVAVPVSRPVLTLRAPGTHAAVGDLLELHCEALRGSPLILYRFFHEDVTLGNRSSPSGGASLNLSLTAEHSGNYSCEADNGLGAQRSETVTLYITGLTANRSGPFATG
Method: The FcRH-binding affinities of IgGs were calculated from association and dissociation rate constants measured using a Biacore 2000 surface plasmon resonance system (BIAcore, Inc.). A biosensor chip was activated for covalent coupling of either anti-murine IgG (BR-1008-338) using N-ethyl-N′-(3-dimethyaminopropyl)-carbodiimide hydrochloride (EDC) and N-hydroxysuccinimide (NHS) according to the supplier's instruction (BIAcore, Inc.). Briefly, for each cycle of kinetic analysis, 5 ul of 100 nM IgG was captured on the chip, two-fold serial dilution of various FcRHs were injected at a flow rate of 20 ul/min for 150 sec. Antigen dissociation was monitored for 180 sec before regeneration. Equilibrium dissociation constants at 25° C. were calculated by fitting the data with a 1:1 Langmuir binding model. Running buffer was PBS with 0.05% Tween −20. All the antibodies bound antigen with sufficient affinity to be used as a therapeutic.

cynomolgus FcRH5, sequence (as listed by the source): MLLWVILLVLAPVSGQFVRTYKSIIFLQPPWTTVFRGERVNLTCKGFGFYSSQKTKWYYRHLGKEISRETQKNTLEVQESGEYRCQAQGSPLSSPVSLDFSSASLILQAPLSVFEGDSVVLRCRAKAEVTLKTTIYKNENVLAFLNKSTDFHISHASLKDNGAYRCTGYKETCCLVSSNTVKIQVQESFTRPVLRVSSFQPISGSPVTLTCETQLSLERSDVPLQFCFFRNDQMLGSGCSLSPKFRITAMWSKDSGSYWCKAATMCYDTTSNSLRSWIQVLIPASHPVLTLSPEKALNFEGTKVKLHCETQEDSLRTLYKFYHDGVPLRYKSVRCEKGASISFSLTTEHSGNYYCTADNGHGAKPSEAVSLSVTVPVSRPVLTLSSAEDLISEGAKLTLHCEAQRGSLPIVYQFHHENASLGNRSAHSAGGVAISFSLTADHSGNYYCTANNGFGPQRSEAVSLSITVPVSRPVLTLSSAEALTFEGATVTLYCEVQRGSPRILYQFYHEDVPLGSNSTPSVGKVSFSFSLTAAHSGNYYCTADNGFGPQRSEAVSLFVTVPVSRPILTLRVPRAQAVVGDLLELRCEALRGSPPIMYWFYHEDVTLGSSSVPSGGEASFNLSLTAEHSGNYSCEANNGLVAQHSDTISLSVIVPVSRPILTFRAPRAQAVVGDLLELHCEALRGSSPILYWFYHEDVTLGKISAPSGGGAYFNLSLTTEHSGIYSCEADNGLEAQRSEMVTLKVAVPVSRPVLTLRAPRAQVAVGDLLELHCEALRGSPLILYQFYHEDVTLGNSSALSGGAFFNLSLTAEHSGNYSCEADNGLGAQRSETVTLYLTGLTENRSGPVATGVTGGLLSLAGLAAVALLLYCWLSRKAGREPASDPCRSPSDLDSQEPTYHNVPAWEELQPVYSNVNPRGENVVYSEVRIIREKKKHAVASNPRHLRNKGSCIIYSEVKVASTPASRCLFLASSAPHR

B1: 10A8: murine anti-FcRH5 monoclonal antibody, light chain variable domain SEQ ID NO: 18, heavy chain variable domain SEQ ID NO: 20 (antibody, listed as Mus musculus, V domains shown)
VH: EVQLVESGGGLVKPGGSLKISCAASGFTFSSYAVSWVRQTPEKRLEWVATISSGGSLTFYLDSVRGRFTISRDNAKNTLYLQMSSLRSEDTAMYYCARPIPDYYALDYWGQGTSVTVSS
VL: DIVMTQSHKFMSTSVRDRVSITCKASQDVSTAVAWYQQKPGQSPKLLIYSASYRYTGVPDRFTGSGSGTDFTFTISSVQAEDLAVYYCQQHFSSPRTFGGGTKVEIKR
modifications: Variable Domain of Heavy Chain of Humanized Antibody (mu10A8)
specificity of binding among huFcRH1-6 by FACS (human FcRH1-6): specifically bind FcRH5 | cross reaction with cynomolgus FcRH5 by FACS analysis (cynomolgus FcRH5): cross react with cynomolgus FcRH5

B2: hu10A8 v1: humanized 10A8 antibody, variable domains SEQ ID NO: 19 and SEQ ID NO: 21 (antibody, V domains shown)
VH: EVQLVESGGGLVQPGGSLRLSCAASGFTFSSYAVSWVRQAPGKGLEWVATISSGGSLTFYLDSVRGRFTISRDNSKNTLYLQMNSLRAEDTAVYYCARPIPDYYALDYWGQGTLVTVSS
VL: DIQMTQSPSSLSASVGDRVTITCKASQDVSTAVAWYQQKPGKAPKLLIYSASYRYTGVPSRFSGSGSGTDFTLTISSLQPEDFATYYCQQHFSSPRTFGQGTKVEIKR
in vitro cell growth inhibition (in words) [1]: no in vitro cell growth inhibition | relative binding affinity of humanized version 1 and the chimera (human FcRH5 [2]): equivalent to the chimera

B3: 13G9: murine monoclonal antibody binding human FcRH5 (antibody, V domains shown)
VH: EVQLVQSGPELKKPGETVKISCKASGYTFTNYGMNWVKQAPGKGLKWMGWVNTYTGEPTYTDDFKGRFAFSVETSASTVFLQINNLKNEDTATYFCARRSIPYYYAMDYWGQGTSLT
VL: DIVMTQSQKIMSTSVGDRVNVTCKASQNVGSNVAWYHQKPGQSPKALIYSASYRYSGVPDRFTGSGSGTDFTLTISNVQSEDLAEYFCQQYKTWTFGGGTKLEIKR
Kd (human FcRH5 [3]): 19 nM | cross reaction with cynomolgus FcRH5 by FACS analysis (cynomolgus FcRH5): cross react with cynomolgus FcRH5
